{"source": "patent US20130243764A1", "about": "(published 2013)", "binders": {"B1": {"name": "BPC1500 (antibody, V domains shown)", "VH": "EVQLVESGGGLVQPGRSLRLSCAASGFTFDDHALHWVRQAPGKGLEWVSAITWNSGHIDYADSVEGRFTISRDNAKNSLYLQMNSLRAEDTAVYYCAKVRYLSTASSLDYWGQGTLVTVSS", "VL": "not shown"}}, "key": {"[1]": {"biological_target": "TNF alpha (species not given)", "assay": "cell-based or functional assay"}, "[2]": {"biological_target": "TNF alpha (species not given)", "assay": "cell-based or functional assay", "remark": "listed apart in the source"}}, "data": [{"binder": "B1", "values": [{"measurement": "IC50 value, L929 neutralisation assay (cell viability)", "setting": "[1]", "value": 0.13, "unit": "µg/mL"}, {"measurement": "IC50 value, TNFα-induced IL-6 release assay (whole blood)", "setting": "[2]", "value": 0.11, "unit": "nM"}]}]}
